Where a chain is given by its changes, count along the chain named. Names and notes keep the numbering of the source.
B1: Pa-ExoY (20-378) K347A (enzyme)
chain: LLRPADMQARALQDLFDAQGVGVPVEHALRMQAVARQTNTVFGIRPVERIVTTLIEEGFPTKGFSVKGKSSNWGPQAGFICVDQHLSKREDRDTAEIRKLNLAVAKGMDGGAYTQTDLRISRQRLAELVRNFGLVADGVGPVRLLTAQGPSGKRYEFEARQEADGLYRISRLGRSEAVQVLASPACGLAMTADYDLFLVAPSIEAHGSGGLDARRNTAVRYTPLGAKDPLSEDGFYGREDMARGNITPRTRQLVDALNDCLGRGEHREMFHHSDDAGNPGSHMGDNFPATFYLPRAMEHRVGEESVRFDEVCVVADRKSFSLLVECIAGNGYHFTAHPDWNVPLRPGFQEALDFFQRKV
B2: Pa-ExoY (20-378) 3 Mut (F367A-L371A-F374A) (enzyme)
chain: B1 chain with A328K, F348A, L352A, F355A
B3: Pa-ExoY (20-378) H352A (enzyme)
chain: B1 chain with A328K, H333A

Molecular target: F-actin (filamentous rabbit skeletal muscle α-actin) (rabbit, UniProt P68135 1-377)
Test: cell-based or functional assay

Row | Binder | F-actin-stimulated guanylate cyclase (cGMP synthesis) activity, 3 μM F-actin, against wild-type Pa-ExoY
1 | B1 | ~15 fold decrease
2 | B2 | ~12000 fold reduction
3 | B3 | ~8 fold decrease

Source: PMC10553838 (PLOS Pathogens, 2023)
